In the RNAGym collection of RNA variant scans (doi:10.1073/pnas.2313332121):

B1: TPR t1 (parent)
chain: GACCAAUCUGCCCUCAGAGCUCGAGAACAUCUUCGGAUGCAGAGGAGGCAGGCUUCGGUGGCGCGAUAGCGCCAACGUCCUCAACCUCCAAUGCAUCCCACCACAUGAUGAUGCCUGAAGAGCCUUGGUUUUUUG

Variants of: B1
Assay: polymerase ribozyme fitness, log enrichment relative to wild type (log ratio); higher = more active; in vitro selection for triplet polymerase activity
How it was run: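 Each subunit of a heterodimeric triplet polymerase ribozyme was mutagenized into a library by PCR, transcribed, and subjected to one round of in vitro selection, run in triplicate. Libraries were annealed with a biotinylated primer, the partner subunit and triplets, incubated frozen at −7 °C, and extended constructs were gel-excised, captured on streptavidin beads and recovered by RT-PCR. Input and output libraries were sequenced on Illumina, keeping genotypes with ≥10 input reads and ≥1 read per output. Fitness is log base 2 of genotype enrichment divided by wild-type enrichment, from inverse-variance-weighted replicate averages.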

Variant	polymerase ribozyme fitness (log ratio)
GACCAAUCUGCCCUCAGAGCUCGAGAACAUCUUCGGAUGCAGAGGAGGCAGGCUUAGGUGGCGCGAUAGCGCCAACGUUCUCAACCACCAAUGCAUCCCACCACAUGAUGAUGCCUGAAGAGCCUUGGUUUUUUG [C56A C79U U87A]	-0.983
GACCAAUCUGCCCUCAGAGCUCGAGAACAUCUUCGGAUGCAGAGGAGGCAGGCUUAGGUGGCGCGAUAGCGCCAAAGUCCUCAACCUCCAAUGCAUCCCACCACAUGAUGAUGCCUGAAGAGCCUUGGUUUUUUG [C56A C76A]	-0.802
GACCAAUCUGCCCUCAGAGCUCGAGAACAUCUUCGGAUGCAGAGGAGGCAGGCUUAGGUGGCGCGAUAGCGCCAACGUCCUUAACCUCCAAUGCAUCCCACCACAUGAUGAUGCCUGAAGAGCCUUGGUUUUUUG [C56A C82U]	-0.413
GACCAAUCUGCCCUCAGAGCUCGAGAACAUCUUCGGAUGCAGAGGAGGCAGGCUUAGGUGGCGCGAUAGCGCCAACGUCCUUAACCUCCAAUGCAUCCCACCAUAUGAUGAUGCCUGAAGAACCAUGGUUUUUUG [C56A C82U C104U G122A U125A]	-1.2
GACCAAUCUGCCCUCAGAGCUCGAGAACAUCUUCGGAUGCAGAGGAGGCAGGCUUAGGUGGCGCGAUAGCGCAAACGUCCUCAACCUCCAAUGCAUCCCACCACAUGAUGAUGCCUGAAGAGCGCAGGUUUUUUG [C56A C73A C124G U125C U126A]	-2.94
GACCAAUCUGCCCUCAGAGCUCGAGAACAUCUUCGGAUGCAGAGGAGGCAGGCUUAGGUGGCGCGAUAGCGUCAACGUCCUCAACCUCCAAUGCAUCCCACCAAAUGAUGAUGCCUGAAGAGCUUUGGUUUUUUG [C56A C72U C104A C124U]	-0.00796
GACCAAUCUGCCCUCAGAGCUCGAGAACAUCUUCGGAUGCAGAGGAGGCAGGCUUAGGUGGCGCGAUAGCGGCAACGCCCUCAACCUCCAAUGCAUCCCACCACAUGAUGAUGCCUGAAGAGCCUUGGUUUUUUG [C56A C72G U78C]	-1.29
GACCAAUCUGCCCUCAGAGCUCGAGAACAUCUUCGGAUGCAGAGGAGGCAGGCUUAGGUGGCGCGAUAGCGCCAACGUCCUAAACCUUCAAUGCAUCCCACCACAUGAUGAUGCCUGAAGAGCCUUGGUUUUUUG [C56A C82A C88U]	-0.846
GACCAAUCUGCCCUCAGAGCUCGAGAACAUCUUCGGAUGCAGAGGAGGCAGGCUUAGGUGGCGCGAUAGCGCCAACGUGCUCAACCUCCAAUGCAUCCCACCACAUGAUGAUGCCUGAAGAGCCUUGGUUUUUUG [C56A C79G]	-0.642
GACCAAUCUGCCCUCAGAGCUCGAGAACAUCUUCGGAUGCAGAGGAGGCAGGCUUAGGUGGCGCGAUAGCGCCAACGUCUUCAACCUCCAAUGCAUCCCACCACAUGAUGAUGCCUGAAGAGCCUUGGUUUUUUG [C56A C80U]	-1.23
GACCAAUCUGCCCUCAGAGCUCGAGAACAUCUUCGGAUGCAGAGGAGGCAGGCUUAGGUGGCGCGAUAGCGCCAACGUCGUCAACCUCCAAUGCAUCCCACCACAUGAUGAUGCCUGAAGAGCCUUGGUUUUUUG [C56A C80G]	-2.82
GACCAAUCUGCCCUCAGAGCUCGAGAACAUCUUCGGAUGCAGAGGAGGCAGGCUUAGGUGGCGCGAUAGCGCUAACGUCCUCAACCUCCAAUGCAUCCCACCACAUGAUGAUGCCUGAAGAGCCUUGGUUUUUUG [C56A C73U]	0.483
GACCAAUCUGCCCUCAGAGCUCGAGAACAUCUUCGGAUGCAGAGGAGGCAGGCUUAGGUGGCGCGAUAGCGCAAACGUCCUCAACCUCCAAUGCAUCCCACCACAUGAUGAUGCCUGAAGAGCCUUGGUUUUUUG [C56A C73A]	-0.651
GACCAAUCUGCCCUCAGAGCUCGAGAACAUCUUCGGAUGCAGAGGAGGCAGGCUUAGGUGGCGCGAUAGCGCUAACGUCCUCAACCUUCAAUGCAUCCCACCACAUGAUGAUGCCUGAAGAGCCUGGGUUUUUUG [C56A C73U C88U U126G]	-3.16
GACCAAUCUGCCCUCAGAGCUCGAGAACAUCUUCGGAUGCAGAGGAGGCAGGCUUAGGUGGCGCGAUAGCGCCAACGUCCUGAACCUCCACUCCAUCCCACCACAUGAUGAUGCCUGAAGAGCCUUGGUUUUUUG [C56A C82G A91C G93C]	-3.53
GACCAAUCUGCCCUCAGAGCUCGAGAACAUCUUCGGAUGCAGAGGAGGCAGGCUUAGGUGGCGCGAUAGCGCCAACGUCCUAAACCUCCAAUGCAUUCCACCACAUGAUGAUGCCUGAAGAGCCUUGGGUUUUUG [C56A C82A C97U U129G]	-2.1
GACCAAUCUGCCCUCAGAGCUCGAGAACAUCUUCGGAUGCAGAGGAGGCAGGCUUAGGUGGCGCGAUAGCGGCAACGUCCUCAACCUCCAAUGCAUCCCACCACAAGAUGAUGCCUGAAGAGCCUUGGUUUUUUG [C56A C72G U106A]	-1.22
GACCAAUCUGCCCUCAGAGCUCGAGAACAUCUUCGGAUGCAGAGGAGGCAGGCUUAGGUGGCGCGAUAGCGCCAACGUUCUCAACCUCCAAUGCAUCCCACCACAUGAAGAUGCCUGAAGAGGCUUGGUUUUUUG [C56A C79U U109A C123G]	-6.51
GACCAAUCUGCCCUCAGAGCUCGAGAACAUCUUCGGAUGCAGAGGAGGCAGGCUUAGGUGGCGCGAUAGCGCUAACGUCCUCAACCUCCAAUGCAUCCCACCACAUGAUGAUGCCUGAAGAGCUUUGGUUUUUUG [C56A C73U C124U]	1.55
GACCAAUCUGCCCUCAGAGCUCGAGAACAUCUUCGGAUGCAGAGGAGGCAGGCUUAGGUGGCGCGAUAGCGCCAACGUCUUCAACCUCCAAUGCAUCCCACAACAUGAUGAUGCCUGAAGAGCUUUGGUUUUUUG [C56A C80U C102A C124U]	-2.1
GACCAAUCUGCCCUCAGAGCUCGAGAACAUCUUCGGAUGCAGAGGAGGCAGGCUUAGGUGGCGCGAUAGCGCCAACGUGCUCAACCACCAAUGCAUCCCACCACAUGAUGAUGCCUGAAGAGCCUUGGUUUUUUG [C56A C79G U87A]	-1.58
